Reference: patent US20080003617A1

Biological target: A1 domain of von Willebrandt factor (vWf), His-tagged A1 antigen (human) (UniProt P04275)
Test: flow cytometry, yeast-displayed scFv with His-tagged A1 and Alexa-488 anti-His tag

## scFv of the murine NMC-4 antibody, displayed on yeast (pYD-NMC4-scFv in EBY100) (from UniProt P32781 19-87)
  percent of cells positive for A1 binding: 50 to 70%
